Publication PMC11341764, “Sae2 controls Mre11 endo- and exonuclease activities by different mechanisms” (Nature Communications, 2024)
Values belong to the molecule of their own block, whether it stands above or below them.

B3: Rad50-FLAG (wild-type) (natural protein, yeast, UniProt P12753 1-1312, looked up)
chain: MSAIYKLSIQGIRSFDSNDRETIEFGKPLTLIVGMNGSGKTTIIECLKYATTGDLPPNSKGGVFIHDPKITGEKDIRAQVKLAFTSANGLNMIVTRNIQLLMKKTTTTFKTLEGQLVAINNSGDRSTLSTRSLELDAQVPLYLGVPKAILEYVIFCHQEDSLWPLSEPSNLKKKFDEIFQAMKFTKALDNLKSIKKDMSVDIKLLKQSVEHLKLDKDRSKAMKLNIHQLQTKIDQYNEEVSEIESQLNEITEKSDKLFKSNQDFQKILSKVENLKNTKLSISDQVKRLSNSIDILDLSKPDLQNLLANFSKVLMDKNNQLRDLETDISSLKDRQSSLQSLSNSLIRRQGELEAGKETYEKNRNHLSSLKEAFQHKFQGLSNIENSDMAQVNHEMSQFKAFISQDLTDTIDQFAKDIQLKETNLSDLIKSITVDSQNLEYNKKDRSKLIHDSEELAEKLKSFKSLSTQDSLNHELENLKTYKEKLQSWESENIIPKLNQKIEEKNNEMIILENQIEKFQDRIMKTNQQADLYAKLGLIKKSINTKLDELQKITEKLQNDSRIRQVFPLTQEFQRADLEMDFQKLFINMQKNIAINNKKMHELDRRYTNALYNLNTIEKDLQDNQKSKEKVIQLLSENLPEDCTIDEYNDVLEETELSYKTALENLKMHQTTLEFNRKALEIAERDSCCYLCSRKFENESFKSKLLQELKTKTDANFEKTLKDTVQNEKEYLHSLRLLEKHIITLNSINEKIDNSQKCLEKAKEETKTSKSKLDELEVDSTKLKDEKELAESEIRPLIEKFTYLEKELKDLENSSKTISEELSIYNTSEDGIQTVDELRDQQRKMNDSLRELRKTISDLQMEKDEKVRENSRMINLIKEKELTVSEIESSLTQKQNIDDSIRSKRENINDIDSRVKELEARIISLKNKKDEAQSVLDKVKNERDIQVRNKQKTVADINRLIDRFQTIYNEVVDFEAKGFDELQTTIKELELNKAQMLELKEQLDLKSNEVNEEKRKLADSNNEEKNLKQNLELIELKSQLQHIESEISRLDVQNAEAERDKYQEESLRLRTRFEKLSSENAGKLGEMKQLQNQIDSLTHQLRTDYKDIEKNYHKEWVELQTRSFVTDDIDVYSKALDSAIMKYHGLKMQDINRIIDELWKRTYSGTDIDTIKIRSDEVSSTVKGKSYNYRVVMYKQDVELDMRGRCSAGQKVLASIIIRLALSETFGANCGVIALDEPTTNLDEENIESLAKSLHNIINMRRHQKNFQLIVITHDEKFLGHMNAAAFTDHFFKVKRDDRQKSQIEWVDINRVTY
notes: Rad50, yeast, expressed from the pFB-RAD50-FLAG vector; Dimeric by mass photometry; also called Rad50-WT; wild-type Rad50 protein

What was measured:
[1] = biological target: Rad50-C47-FLAG (yeast) (UniProt P12753); assay: mass photometry; Rad50 variants alone; molecular weight estimated
[2] = biological target: T1, Rad50-C47 (Saccharomyces cerevisiae, UniProt P12753 1-1312, K1299R); assay: EMSA; 1 mM ATP-gamma-S, 5 mM Mg2+; comparable to WT; 25 mM Tris-acetate pH 7.5, 5 mM Mg chloride, 1 mM DTT, 0.25 ug/ul BSA, 1 mM ATP-gamma-S, 1 nM DNA, 15 min at 30 C; 6% PAGE in TAE on ice; details: protein: recombinant; tags: FLAG; chain copies: 2; label: PC210 3' 32P-dC added by TdT; blunt apart from the 3' TdT-added labeled dC on PC210
T1 sequence: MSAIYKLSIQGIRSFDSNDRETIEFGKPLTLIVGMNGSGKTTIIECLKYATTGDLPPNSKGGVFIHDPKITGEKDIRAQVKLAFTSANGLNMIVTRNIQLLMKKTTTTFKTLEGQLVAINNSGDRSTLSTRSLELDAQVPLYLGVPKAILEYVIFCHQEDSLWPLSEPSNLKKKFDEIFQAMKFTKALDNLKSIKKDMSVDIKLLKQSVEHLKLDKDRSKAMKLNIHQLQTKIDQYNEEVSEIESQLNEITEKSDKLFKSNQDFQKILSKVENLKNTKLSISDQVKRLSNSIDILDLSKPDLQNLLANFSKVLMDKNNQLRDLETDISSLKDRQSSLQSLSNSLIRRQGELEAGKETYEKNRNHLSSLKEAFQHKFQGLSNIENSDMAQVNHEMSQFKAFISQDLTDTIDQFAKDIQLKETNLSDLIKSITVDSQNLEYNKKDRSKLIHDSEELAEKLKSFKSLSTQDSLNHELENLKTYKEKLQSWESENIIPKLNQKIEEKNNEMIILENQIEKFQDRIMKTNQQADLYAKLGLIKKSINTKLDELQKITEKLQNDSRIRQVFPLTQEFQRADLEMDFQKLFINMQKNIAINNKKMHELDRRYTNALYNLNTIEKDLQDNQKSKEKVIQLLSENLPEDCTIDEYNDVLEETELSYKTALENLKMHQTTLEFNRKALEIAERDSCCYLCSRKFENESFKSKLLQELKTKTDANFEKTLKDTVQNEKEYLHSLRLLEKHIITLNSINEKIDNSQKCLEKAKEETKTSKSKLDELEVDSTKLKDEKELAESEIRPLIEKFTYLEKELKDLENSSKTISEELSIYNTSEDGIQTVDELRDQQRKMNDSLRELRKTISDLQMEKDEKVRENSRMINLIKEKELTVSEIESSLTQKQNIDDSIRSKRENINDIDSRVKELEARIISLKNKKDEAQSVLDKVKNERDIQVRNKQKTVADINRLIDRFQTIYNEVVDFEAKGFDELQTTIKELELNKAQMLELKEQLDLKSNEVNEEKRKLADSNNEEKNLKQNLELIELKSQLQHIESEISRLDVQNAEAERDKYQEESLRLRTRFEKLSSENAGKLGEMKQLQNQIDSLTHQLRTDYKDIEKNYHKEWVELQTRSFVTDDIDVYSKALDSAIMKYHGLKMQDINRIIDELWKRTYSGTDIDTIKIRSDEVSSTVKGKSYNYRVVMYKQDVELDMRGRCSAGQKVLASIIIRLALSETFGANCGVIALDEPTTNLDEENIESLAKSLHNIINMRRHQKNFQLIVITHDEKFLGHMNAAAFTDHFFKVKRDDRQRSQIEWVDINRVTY

[3] = biological target: B3; assay: pull-down; MBP-pSae2 (bait) from Sf9 extracts immobilised on amylose resin and washed, incubated 1 h at 4 °C with 2.5 μg purified Rad50-FLAG variants (prey); 50 mM Tris-HCl pH 7.5, 2 mM EDTA, 80 mM NaCl, 0.2% NP40; eluted with 20 mM maltose; anti-FLAG blot; details: both partners purified
[4] = biological target: the molecule itself; assay: mass photometry; Rad50 variants alone; molecular weight estimated

B1: 70 bp dsDNA (PC210/PC211) (dsDNA)
DNA 1: GTAAGTGCCGCGGTGCGGGTGCCAGGGCGTGCCCTTGGGCTCCCCGGGCGCGTACTCCACCTCATGCATC
DNA 2: GATGCATGAGGTGGAGTACGCGCCCGGGGAGCCCAAGGGCACGCCCTGGCACCCGCACCGCGGCACTTAC
modifications: biotinylated dT in the oligonucleotides (Table S1; positions marked by bold underline, lost in the text)
binding result [2]: binds

Molecule: B3
stoichiometry N [4]: 2

The remaining lines, values ahead:

stoichiometry N [1]: 2
Molecule: Rad50-C47-FLAG (from UniProt P12753 1-1312) (natural protein)

binding result [3]: binds
B2: phosphorylated MBP-Sae2 (natural protein, yeast, UniProt P46946 1-345, looked up)
chain: MVTGEENVYLKSSLSILKELSLDELLNVQYDVTTLIAKRVQALQNRNKCVLEEPNSKLAEILCHEKNAPQQSSQTSAGPGEQDSEDFILTQFDEDIKKESAEVHYRNENKHTVQLPLVTMPPNRHKRKISEFSSPLNGLNNLSDLEDCSDTVIHEKDNDKENKTRKLLGIELENPESTSPNLYKNVKDNFLFDFNTNPLTKRAWILEDFRPNEDIAPVKRGRRKLERFYAQVGKPEDSKHRSLSVVIESQNSDYEFAFDNLRNRSKSPPGFGRLDFPSTQEGNEDKKKSQEIIRRKTKYRFLMASNNKIPPYEREYVFKREQLNQIVDDGCFFWSDKLLQIYARC
modifications: phosphorylated (expressed in the presence of phosphatases inhibitors); sites not stated
notes: Sae2, yeast, from the pFB-MBP-Sae2-His vector expressing MBP and His-tagged Sae2; also called MBP-pSae2; source: Sf9, from extracts, held on amylose resin and washed
